Measured values from patent publication US12559863B2, “Macrocyclic modulators of disease associated protein misfolding and aggregation” (RESQ BIOTECH, priority 2017, dated 2026).

Target: T1, Aβ42-GFP (Homo sapiens, UniProt P05067)
T1 construct: a chimeric fusion of the human Aβ(1-42) peptide (Aβ42) with GFP; expressed in transfected cells; host or cells: E. coli BL21(DE3)
Experiment: High-throughput sequencing of pSICLOPPS vectors isolated after bacterial sorting for enhanced Aβ42-GFP fluorescence
Conditions: for Reads/Total TXXXR reads (%): relative to total TXXXR reads; for Reads/Total pentapeptide reads (%): relative to total pentapeptide reads; for Normalized read number (%): Table 3, cyclo-TXXR tetrapeptides
Description: On the other hand, very few bioactive sequences resembling AβC5-34 should exist. […] The peptide-encoding vectors contained in these clones were isolated and the peptide-encoding region of approximately 5.6 million of these plasmids was sequenced using an Ion Torrent high-throughput sequencing platform. […] First, pentapeptides were the dominant peptide species within the sorted pool (FIG. 12D), in agreement with previous observations (FIG. 8G). Second, the most prevalent motif among the selected pentapeptide sequences were TXXXR pentapeptides (˜47% of the selected pentapeptide-encoding pSICLOPPS plasmids; ˜42% of the unique selected pentapeptide sequences) (Table 1), in accordance with previous observations (FIG. 8G). […] At position 2, Thr, Ala, and Val were preferred, while aromatic residues (Phe, Trp, Tyr) were completely excluded from the selected TXXXR peptide pool, in full agreement with our site-directed mutagenesis studies. At the highly variable position 3, the complete absence of the negatively charged amino acids Glu and Asp among the selected sequences was notable (FIG. 12E). […] It is noteworthy, that Lys and Gln residues were practically absent from all positions, while the β sheet-breaking amino acid Pro that is typically included in designed peptide-based inhibitors of amyloid aggregation appeared with strikingly low frequencies (FIG. 12E).
Electrocompetent E. coli BL21(DE3) cells (Novagen, USA) carrying either the expression vector pETSOD1(A4V)-GFP, which produces SOD1(A4V)-GFP under control of the strong bacteriophage T7 promoter, or pETAβ42-GFP, which produces Aβ42-GFP under control of the T7 promoter, were co-transformed with the combined pSICLOPPS-NuX1X2X3-X5 vector library. Approximately 10^8 transformants carrying both the vector library and either pETSOD1(A4V)-GFP or pETAβ42-GFP vectors were harvested, pooled together, and grown in Luria-Bertani (LB) liquid medium containing either 0.005% (pETSOD1(A4F)-GFP) or 0.002% (pETAβ42-GFP) L-arabinose—the inducer of cyclic peptide production—at 37° C. with shaking. When the optical density at 600 nm (OD600) of the bacterial culture was about 0.5, 0.01 (pETSOD1(A4F)-GFP) or 0.1 (pETAβ42-GFP) mM isopropyl-β-D-thiogalactoside (IPTG) was added to the medium to induce overexpression of the reporter. […] The isolated cells were re-grown and screened for additional rounds in an identical manner until the desired enrichment in high-fluorescence clones was achieved.
For the characterization of the initial libraries, a combined pSICLOPPS-NuX1X2X3-X5 vector library was prepared containing approximately equal amounts of each one of the tetra-, penta- and hexapeptide sub-libraries. These samples were digested with NcoI and BsrGI and the resulting ˜250 bp product that contained the variable peptide-encoding region was isolated. High-throughput sequencing analysis was performed using an Ion Torrent high-throughput sequencing platform. From the obtained data, all the sequences with mismatches outside of the variable peptide-encoding region were removed, and only the 12-, 15- or 18-bp-long peptide-encoding sequences were subjected to further analysis. The libraries of the selected cyclic peptides that enhance either SOD1(A4V)-GFP or Aβ42-GFP fluorescence were sequenced in a similar manner, with the only exception being that all sequences including stop codons were discarded from subsequent analysis.

[1] = after the second round of bacterial sorting
[2] = after the second round of bacterial sorting, relative to total peptide reads
[3] = high-throughput sequencing of isolated pSICLOPPS-NuX1X2X3-X5 vectors after the second round of bacterial sorting for enhanced Aβ42-GFP fluorescence, selected cyclo-TXXXR pentapeptides
[4] = Table 4, hexapeptides, after second round of sorting
[5] = after the second round of bacterial sorting for enhanced Aβ42-GFP fluorescence
[6] = after the second round of bacterial sorting for enhanced Aβ42-GFP fluorescence, relative to total peptide reads
[7] = pSICLOPPS-NuX1X2X3-X5 vectors after the second round of bacterial sorting for enhanced Aβ42-GFP fluorescence

Substance	Reads/Total TXXXR reads (%) [1] [%]	Reads/Total pentapeptide reads (%) [1] [%]	Reads/Total peptide reads (%) [2] [%]	Number of reads [3]	further results
AβC5-255 (TTSRR; cyclic)	0.017	0.008	0.007	325	–
TPLWFN [AβC6-40]	–	–	–	–	Reads/Total hexapeptide reads (%) (Table 4): 0.070%; Reads/Total peptide reads (%) (Table 4): 0.007%; Number of reads [4]: 316
AβC5-118 (TTFWR; cyclic)	0.222	0.104	0.093	4,216	–
AβC5-410 (TVLGR; cyclic pentapeptide)	–	–	–	–	Reads/Total TXXXR reads (%) [5]: 0.004%; Reads/Total pentapeptide reads (%) [5]: 0.002%; Reads/Total peptide reads (%) [6]: 0.002%; Number of reads [7]: 76
AβC5-263 (THLAR; cyclic)	0.015	0.007	0.006	284	–
AβC5-18 (TTIAR; cyclic)	1.953	0.915	0.820	37,150	–
AβC5-396 (TTTPR; head-to-tail cyclic)	–	–	–	–	Reads/Total TXXXR reads (%) [5]: 0.004%; Reads/Total pentapeptide reads (%) [5]: 0.002%; Reads/Total peptide reads (%) [6]: 0.002%; Number of reads [7]: 84
AβC5-434 (TTSGR; cyclic pentapeptide)	–	–	–	–	Reads/Total TXXXR reads (%) [5]: 0.003%; Reads/Total pentapeptide reads (%) [5]: 0.002%; Reads/Total peptide reads (%) [6]: 0.001%; Number of reads [7]: 65
AβC5-384 (TTYTR; head-to-tail cyclic)	0.005	0.002	0.002	90	–
TKEYFD [AβC6-21]	–	–	–	–	Reads/Total hexapeptide reads (%) (Table 4): 0.272%; Reads/Total peptide reads (%) (Table 4): 0.027%; Number of reads [4]: 1,231
AβC5-190 (TLCLR; cyclic)	0.039	0.018	0.016	739	–
AβC5-272 (TCMWR; cyclic)	0.013	0.006	0.006	254	–
AβC5-343 (TNLDR; head-to-tail cyclic)	0.007	0.003	0.003	125	–
cyclo-TLIR (cyclic) [AβC4B-41]	–	–	–	–	Normalized read number (%): 0.775%
AβC5-51 (TSVDR; cyclic pentapeptide)	1.012	0.474	0.425	19,249	–
TPCWFD [AβC6-46]	–	–	–	–	Reads/Total hexapeptide reads (%) (Table 4): 0.056%; Reads/Total peptide reads (%) (Table 4): 0.006%; Number of reads [4]: 252
AβC5-320 (TTVER; head-to-tail cyclic)	0.008	0.004	0.003	150	–
AβC5-73 (TTRDR; cyclic pentapeptide)	0.678	0.318	0.285	12,894	–
AβC5-474 (TTWPR; cyclic pentapeptide)	–	–	–	–	Reads/Total TXXXR reads (%) [5]: 0.003%; Reads/Total pentapeptide reads (%) [5]: 0.001%; Reads/Total peptide reads (%) [6]: 0.001%; Number of reads [7]: 51
TLDFFD [AβC6-63]	–	–	–	–	Reads/Total hexapeptide reads (%) (Table 4): 0.025%; Reads/Total peptide reads (%) (Table 4): 0.003%; Number of reads [4]: 114
AβC5-449 (TANAR; cyclic pentapeptide)	–	–	–	–	Reads/Total TXXXR reads (%) [5]: 0.003%; Reads/Total pentapeptide reads (%) [5]: 0.001%; Reads/Total peptide reads (%) [6]: 0.001%; Number of reads [7]: 58

Substance	Reads/Total TXXXR reads (%) [1] [%]	Reads/Total pentapeptide reads (%) [1] [%]	Reads/Total peptide reads (%) [2] [%]	Number of reads [3]	further results
TPAWLD [AβC6-79]	–	–	–	–	Reads/Total hexapeptide reads (%) (Table 4): 0.012%; Reads/Total peptide reads (%) (Table 4): 0.001%; Number of reads [4]: 55
AβC5-3 (TTVDR; cyclic)	11.276	5.282	4.734	214,461	–
AβC5-438 (TTTSR; cyclic pentapeptide)	–	–	–	–	Reads/Total TXXXR reads (%) [5]: 0.003%; Reads/Total pentapeptide reads (%) [5]: 0.002%; Reads/Total peptide reads (%) [6]: 0.001%; Number of reads [7]: 62
TLSWFN [AβC6-59]	–	–	–	–	Reads/Total hexapeptide reads (%) (Table 4): 0.031%; Reads/Total peptide reads (%) (Table 4): 0.003%; Number of reads [4]: 141
AβC5-323 (TAVDR; head-to-tail cyclic)	0.008	0.004	0.003	147	–
AβC5-452 (THVDR; cyclic pentapeptide)	–	–	–	–	Reads/Total TXXXR reads (%) [5]: 0.003%; Reads/Total pentapeptide reads (%) [5]: 0.001%; Reads/Total peptide reads (%) [6]: 0.001%; Number of reads [7]: 58
AβC5-223 (TGLDR; cyclic)	0.024	0.011	0.010	464	–
AβC5-173 (TTHAR; cyclic)	0.050	0.023	0.021	953	–
AβC5-136 (TALHR; cyclic)	0.107	0.050	0.045	2,026	–
AβC5-333 (THVRR; head-to-tail cyclic)	0.007	0.003	0.003	137	–
TPVWFD [AβC6-1]	–	–	–	–	Reads/Total hexapeptide reads (%) (Table 4): 29.151%; Reads/Total peptide reads (%) (Table 4): 2.912%; Number of reads [4]: 131,935
AβC5-316 (TTCAR; head-to-tail cyclic)	0.008	0.004	0.003	157	–
TPGWFD [AβC6-55]	–	–	–	–	Reads/Total hexapeptide reads (%) (Table 4): 0.040%; Reads/Total peptide reads (%) (Table 4): 0.004%; Number of reads [4]: 180
AβC5-392 (TTCDR; head-to-tail cyclic)	–	–	–	–	Reads/Total TXXXR reads (%) [5]: 0.005%; Reads/Total pentapeptide reads (%) [5]: 0.002%; Reads/Total peptide reads (%) [6]: 0.002%; Number of reads [7]: 87
AβC5-365 (TTGGR; head-to-tail cyclic)	0.006	0.003	0.002	106	–
TLEFFD [AβC6-4]	–	–	–	–	Reads/Total hexapeptide reads (%) (Table 4): 5.978%; Reads/Total peptide reads (%) (Table 4): 0.597%; Number of reads [4]: 27,057
AβC5-15 (TANVR; cyclic)	2.516	1.179	1.056	47,855	–
AβC5-344 (TTPGR; head-to-tail cyclic)	0.007	0.003	0.003	125	–
TIFWFD [AβC6-50]	–	–	–	–	Reads/Total hexapeptide reads (%) (Table 4): 0.050%; Reads/Total peptide reads (%) (Table 4): 0.005%; Number of reads [4]: 227
cyclo-TTCR (cyclic) [AβC4-9]	–	–	–	–	Normalized read number (%): 1.248%
